# Reference: the supplement of paper PMC7877785
# ± gives the uncertainty stated by the source.
# Assay: self-splicing fitness, log relative to wild type (ln ratio); higher = more splicing; Tetrahymena group I intron in knt gene, E. coli kanamycin selection, DiMSum; sequences stand for … in CUCUCU…GGAGGGAAAAGUUAUCAGGCAUGCACCUGGUAGCUAGUCUUUAAACCAAUAGAUUGCAUCGGUUUAAAAGGCAAGACCGUCAAAUUGCGGGAAAGGGGUCAACAGCCGUUCAGUACCAAGUCUCAGGGGAAACUUUGAGAUGGCCUUGCAAAGGGUAUGGUAAUAAGCUGACGGACAUGGUCCUAACCACGCAGCCAAGUCCUAAGUCAACAGAUCUUCUGUUGAUAUGGAUGCAGUUCACAGACUAAAUGUCGGUCGGGGAAGAUGUAUUCUUCUCAUAAGAUAUAGUCGGACCUCUCCUUAAUGGGAGCUAGCGGAUGAAGUGAUGCAACACUGGAGCCGCUGGGAACUAAUUUGUAUGCGAAAGUAUAUUGAUUAGUUUUGGAGUACUCGUGGUCG
# How it was run: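 Colonies from six replicate transformations of E. coli BL21(DE3) were pooled and amplicon-sequenced on an Illumina HiSeq 2500. The library placed an intron with all eight P1ex-region nucleotides randomised inside the knt kanamycin-resistance gene on pET-22b(+), and cells grew overnight at 37°C or 30°C on LB agar with or without 25 μg/mL kanamycin (plus 100 μg/mL carbenicillin, 50 μM IPTG, 0.2% rhamnose). Fitness is the DiMSum error-weighted combination of wild-type-normalised replicate fold changes, kanamycin versus none.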
Sequence,self-splicing fitness (ln) (30 °C),self-splicing fitness (ln) (37 °C)
UAAGAGCAAUAUUACGGUCU,-3.26 ± 0.4,-2.04 ± 0.24
UAAGAGCAAUAUUACGUAGG,-3.24 ± 0.33,-2.56 ± 0.3
UAAGAGCAAUAUUACGUCCU,,-2.49 ± 0.45
UAAGAGCAAUAUUACGUCGG,-3.8 ± 0.29,-2.25 ± 0.27
UAAGAGCAAUAUUACGUGAU,-4.21 ± 0.34,-2.43 ± 0.35
UAAGAGCAAUAUUACGUGCG,-3.85 ± 0.42,-0.711 ± 0.27
UAAUAGCAAUAUUACGACAA,-2.23 ± 0.16,-1.01 ± 0.14
UAAUAGCAAUAUUACGACAU,-3.378 ± 0.025,-1.95 ± 0.036
UAAUAGCAAUAUUACGAGCA,-1.64 ± 0.16,-1.21 ± 0.16
UAAUAGCAAUAUUACGCAUC,-2.08 ± 0.49,
UAAUAGCAAUAUUACGCAUG,-1.4 ± 0.085,0.553 ± 0.13
UAAUAGCAAUAUUACGCCCA,-1.36 ± 0.19,0.129 ± 0.26
UAAUAGCAAUAUUACGCCGG,-1.23 ± 0.17,-1.05 ± 0.33
UAAUAGCAAUAUUACGCCGU,-2.83 ± 0.38,-1.97 ± 0.43
UAAUAGCAAUAUUACGCUUA,-1.32 ± 0.25,-0.932 ± 0.15
UAAUAGCAAUAUUACGGCGC,-3.51 ± 0.35,-2.42 ± 0.38
UAAUAGCAAUAUUACGGCUC,-2.37 ± 0.23,-0.201 ± 0.23
UAAUAGCAAUAUUACGGGCC,-3.78 ± 0.44,-2.52 ± 0.48
UAAUAGCAAUAUUACGGUGU,-2.98 ± 0.21,-2.93 ± 0.3
UAAUAGCAAUAUUACGUCAG,-2.58 ± 0.25,-1.56 ± 0.2
UAAUAGCAAUAUUACGUGCA,-1.36 ± 0.11,-1.34 ± 0.099
UAAUAGCAAUAUUACGUGGU,-4.96 ± 0.28,-2.75 ± 0.15
UAAUAGCAAUAUUACGUGUG,-1.6 ± 0.073,-0.917 ± 0.074
UACAAGCAAUAUUACGAACC,,-0.357 ± 0.23
UACAAGCAAUAUUACGACAU,-1.474 ± 0.012,-0.59 ± 0.032

Sequence,self-splicing fitness (ln) (30 °C),self-splicing fitness (ln) (37 °C)
UACAAGCAAUAUUACGAGAC,-3.27 ± 0.43,-1.43 ± 0.23
UACAAGCAAUAUUACGCAGG,-2.78 ± 0.11,-1.7 ± 0.095
UACAAGCAAUAUUACGCAUC,-2.99 ± 0.16,-2.02 ± 0.18
UACAAGCAAUAUUACGCAUG,-2.07 ± 0.088,-0.74 ± 0.086
UACAAGCAAUAUUACGCCCG,0.87 ± 0.18,0.761 ± 0.23
UACAAGCAAUAUUACGCGCC,-1.66 ± 0.13,-0.798 ± 0.13
UACAAGCAAUAUUACGCUCG,-1.26 ± 0.088,0.16 ± 0.11
UACAAGCAAUAUUACGGCGU,-1.14 ± 0.11,-0.846 ± 0.098
UACAAGCAAUAUUACGGGAG,-3.1 ± 0.12,-1.49 ± 0.094
UACAAGCAAUAUUACGGGAU,-3.65 ± 0.17,-1.39 ± 0.11
UACAAGCAAUAUUACGGGCA,-0.0705 ± 0.063,0.152 ± 0.072
UACAAGCAAUAUUACGGGCU,-4.2 ± 0.34,-2.82 ± 0.18
UACAAGCAAUAUUACGGGUA,-1.13 ± 0.072,-0.839 ± 0.077
UACAAGCAAUAUUACGGGUU,-2.8 ± 0.091,-1.63 ± 0.097
UACAAGCAAUAUUACGGUAA,-2.12 ± 0.1,-1.15 ± 0.1
UACAAGCAAUAUUACGGUGC,-3.55 ± 0.26,-2.35 ± 0.21
UACAAGCAAUAUUACGGUUC,-3.49 ± 0.15,-1.73 ± 0.13
UACAAGCAAUAUUACGGUUU,-1.86 ± 0.093,-0.738 ± 0.095
UACAAGCAAUAUUACGUACU,-2.71 ± 0.14,-1.45 ± 0.13
UACAAGCAAUAUUACGUCCU,-1.16 ± 0.1,0.292 ± 0.15
UACAAGCAAUAUUACGUCGC,-2.94 ± 0.11,-2.51 ± 0.14
UACAAGCAAUAUUACGUCUA,-0.798 ± 0.049,0.00361 ± 0.068
UACAAGCAAUAUUACGUCUC,-1.68 ± 0.1,-2.24 ± 0.17
UACAAGCAAUAUUACGUGUC,-3.91 ± 0.14,-1.15 ± 0.094
UACCAGCAAUAUUACGAAUC,-2.37 ± 0.2,-1.05 ± 0.23

Sequence,self-splicing fitness (ln) (30 °C),self-splicing fitness (ln) (37 °C)
UACCAGCAAUAUUACGAAUG,-0.839 ± 0.055,-0.00427 ± 0.073
UACCAGCAAUAUUACGACAA,-0.483 ± 0.099,-0.494 ± 0.09
UACCAGCAAUAUUACGACAG,-1.2 ± 0.056,-0.278 ± 0.076
UACCAGCAAUAUUACGACGA,-0.586 ± 0.086,0.837 ± 0.11
UACCAGCAAUAUUACGAGGG,-3.38 ± 0.2,-1.3 ± 0.12
UACCAGCAAUAUUACGAGGU,-3.36 ± 0.22,-3.39 ± 0.23
UACCAGCAAUAUUACGAGUG,-0.127 ± 0.052,-0.0711 ± 0.067
UACCAGCAAUAUUACGCAAG,-2.3 ± 0.13,-0.829 ± 0.13
UACCAGCAAUAUUACGCACC,-1.52 ± 0.26,-0.172 ± 0.21
UACCAGCAAUAUUACGCCAA,-2.05 ± 0.12,-0.589 ± 0.099
UACCAGCAAUAUUACGCGAU,-2.6 ± 0.17,-0.608 ± 0.15
UACCAGCAAUAUUACGCGCU,-3.47 ± 0.37,-1.77 ± 0.22
UACCAGCAAUAUUACGCUCU,-0.618 ± 0.072,0.00956 ± 0.082
UACCAGCAAUAUUACGCUGG,-3.35 ± 0.18,-2.77 ± 0.22
UACCAGCAAUAUUACGCUGU,-3.86 ± 0.17,-1.36 ± 0.13
UACCAGCAAUAUUACGGCAG,-0.582 ± 0.081,0.685 ± 0.1
UACCAGCAAUAUUACGGCGA,-0.21 ± 0.13,0.254 ± 0.19
UACCAGCAAUAUUACGGGUG,-3.23 ± 0.097,-1.78 ± 0.078
UACCAGCAAUAUUACGGUGA,-0.536 ± 0.057,0.0523 ± 0.075
UACCAGCAAUAUUACGUCGU,-2.09 ± 0.09,-2.14 ± 0.12
UACCAGCAAUAUUACGUGAG,-2.27 ± 0.083,-1.56 ± 0.085
UACCAGCAAUAUUACGUGAU,-1.93 ± 0.063,-1.41 ± 0.074
UACCAGCAAUAUUACGUGCC,-3.35 ± 0.24,-0.584 ± 0.19
UACCAGCAAUAUUACGUGGU,-3.86 ± 0.14,-2.89 ± 0.16
UACCAGCAAUAUUACGUGUA,-2.59 ± 0.12,-1.67 ± 0.1

Sequence,self-splicing fitness (ln) (30 °C),self-splicing fitness (ln) (37 °C)
UACCAGCAAUAUUACGUGUG,-1.22 ± 0.046,-0.527 ± 0.059
UACCAGCAAUAUUACGUUAG,-1.18 ± 0.068,-1.16 ± 0.067
UACGAGCAAUAUUACGACAU,-3.899 ± 0.031,-2.47 ± 0.04
UACGAGCAAUAUUACGAUGG,-2.85 ± 0.22,-2.29 ± 0.24
UACGAGCAAUAUUACGCACG,-2.94 ± 0.2,-1.3 ± 0.18
UACGAGCAAUAUUACGCAUC,,-1.96 ± 0.21
UACGAGCAAUAUUACGCGCC,-2.33 ± 0.42,
UACGAGCAAUAUUACGCUCG,,-1.74 ± 0.31
UACGAGCAAUAUUACGGACG,-2.32 ± 0.12,-1.24 ± 0.15
UACGAGCAAUAUUACGGAUA,-2.3 ± 0.17,-1.43 ± 0.12
UACGAGCAAUAUUACGGCCA,-1.61 ± 0.21,-1.85 ± 0.18
UACGAGCAAUAUUACGGGCU,,-2.43 ± 0.27
UACGAGCAAUAUUACGUACA,-0.833 ± 0.27,-1.22 ± 0.48
UACUAGCAAUAUUACGAAUA,-1.51 ± 0.18,-0.474 ± 0.13
UACUAGCAAUAUUACGAUGC,-4.22 ± 0.26,-2.54 ± 0.3
UACUAGCAAUAUUACGCAGA,-3.67 ± 0.47,-2.27 ± 0.22
UACUAGCAAUAUUACGCAUU,-3.73 ± 0.21,-1.81 ± 0.14
UACUAGCAAUAUUACGCCGU,-2.24 ± 0.25,-2.67 ± 0.48
UACUAGCAAUAUUACGCGAG,-1.86 ± 0.072,-1.59 ± 0.07
UACUAGCAAUAUUACGCGCA,-0.569 ± 0.071,0.207 ± 0.094
UACUAGCAAUAUUACGCGGA,-2.97 ± 0.18,-1.42 ± 0.16
UACUAGCAAUAUUACGCGGU,-3.43 ± 0.47,-2.52 ± 0.33
